Values belong to the molecule of their own block, whether it stands above or below them.
Columns and labels:
[1] = molecular target: microtubules (native, from pig brain tubulin) (pig) (UniProt P02550); experiment: co-sedimentation; constant microtubule concentration (1 µM for spastin, 2 µM for katanin), increasing enzyme; 1 mM ATP-γS; BRB80, room temperature, 100,000 g; stoichiometry by extrapolation of the saturation curve
[2] = molecular target: microtubules (native, from pig brain tubulin) (pig) (UniProt P02550); experiment: co-sedimentation; constant microtubule concentration (1 µM for spastin, 2 µM for katanin), increasing enzyme; 1 mM ADP; BRB80, room temperature, 100,000 g; stoichiometry by extrapolation of the saturation curve
[3] = molecular target: microtubules (native, from pig brain tubulin) (pig) (UniProt P02550); experiment: single-molecule TIRF microscopy; microtubules attached to the flow cell; 10 nM GFP-enzyme; buffer 5 with 160 mM NaCl (ionic strength 0.225 M); 1 mM ATP; mono-exponential lifetime; details: for landing rate: scale: (10 µm)^−1 ·
[4] = molecular target: microtubules (native, from pig brain tubulin) (pig) (UniProt P02550); experiment: single-molecule TIRF microscopy; microtubules attached to the flow cell by anti-tubulin antibody; 5–10 nM GFP-enzyme in solution; 1 mM ATP-γS; landing rates and dwell times from kymographs; details: for landing rate: scale: (10 µm)^−1 ·
[5] = molecular target: microtubules (native, from pig brain tubulin) (pig) (UniProt P02550); experiment: single-molecule TIRF microscopy; microtubules attached to the flow cell by anti-tubulin antibody; 5–10 nM GFP-enzyme in solution; 1 mM ATP; landing rates and dwell times from kymographs; details: for landing rate: scale: (10 µm)^−1 ·
[6] = molecular target: microtubules (native, from pig brain tubulin) (pig) (UniProt P02550); experiment: single-molecule TIRF microscopy; microtubules attached to the flow cell; 10 nM GFP-enzyme; buffer 5 with 80 mM NaCl (ionic strength 0.145 M); 1 mM ATP; dwell time is a mean, not an exponential fit; details: for landing rate: scale: (10 µm)^−1 ·
[7] = molecular target: microtubules (native, from pig brain tubulin) (pig) (UniProt P02550); experiment: single-molecule TIRF microscopy; microtubules attached to the flow cell by anti-tubulin antibody; 5–10 nM GFP-enzyme in solution; 1 mM AMPPNP; landing rates and dwell times from kymographs; dwell times are lower limits; details: for landing rate: scale: (10 µm)^−1 ·
[8] = molecular target: microtubules (native, from pig brain tubulin) (pig) (UniProt P02550); experiment: single-molecule TIRF microscopy; microtubules attached to the flow cell; 10 nM GFP-enzyme; buffer 5 with 300 mM NaCl (ionic strength 0.365 M); 1 mM ATP; mono-exponential lifetime; details: for landing rate: scale: (10 µm)^−1 ·
[9] = molecular target: microtubules (native, from pig brain tubulin) (pig) (UniProt P02550); experiment: co-sedimentation; constant microtubule concentration (1 µM for spastin, 2 µM for katanin), increasing enzyme; 1 mM ATP; BRB80, room temperature, 100,000 g; stoichiometry by extrapolation of the saturation curve
[10] = molecular target: microtubules (native, from pig brain tubulin) (pig) (UniProt P02550); experiment: co-sedimentation; fixed E309Q-katanin concentration, variable microtubule concentrations (native or subtilisin-treated, up to 4 µM); 100,000 g, BRB80, room temperature; SDS-PAGE of supernatants and pellets
[11] = molecular target: subtilisin-treated microtubules (pig) (UniProt P02550); experiment: as above
Chain of subtilisin-treated microtubules (pig) (P02550 whole entry, chain 1 of 2): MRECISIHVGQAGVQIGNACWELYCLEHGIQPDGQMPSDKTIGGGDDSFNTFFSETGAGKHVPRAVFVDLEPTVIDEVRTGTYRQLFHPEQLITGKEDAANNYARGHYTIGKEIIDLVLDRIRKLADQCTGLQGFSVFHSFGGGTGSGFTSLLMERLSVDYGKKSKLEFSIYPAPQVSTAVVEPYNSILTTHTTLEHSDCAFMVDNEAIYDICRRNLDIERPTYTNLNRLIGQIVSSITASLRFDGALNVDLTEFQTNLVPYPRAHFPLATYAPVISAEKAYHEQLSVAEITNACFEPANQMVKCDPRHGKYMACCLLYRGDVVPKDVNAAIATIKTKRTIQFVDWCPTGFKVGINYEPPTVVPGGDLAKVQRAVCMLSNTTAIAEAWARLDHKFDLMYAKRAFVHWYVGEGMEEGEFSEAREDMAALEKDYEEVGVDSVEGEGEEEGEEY
Chain of subtilisin-treated microtubules (pig) (Q767L7 whole entry, chain 2 of 2, further chain): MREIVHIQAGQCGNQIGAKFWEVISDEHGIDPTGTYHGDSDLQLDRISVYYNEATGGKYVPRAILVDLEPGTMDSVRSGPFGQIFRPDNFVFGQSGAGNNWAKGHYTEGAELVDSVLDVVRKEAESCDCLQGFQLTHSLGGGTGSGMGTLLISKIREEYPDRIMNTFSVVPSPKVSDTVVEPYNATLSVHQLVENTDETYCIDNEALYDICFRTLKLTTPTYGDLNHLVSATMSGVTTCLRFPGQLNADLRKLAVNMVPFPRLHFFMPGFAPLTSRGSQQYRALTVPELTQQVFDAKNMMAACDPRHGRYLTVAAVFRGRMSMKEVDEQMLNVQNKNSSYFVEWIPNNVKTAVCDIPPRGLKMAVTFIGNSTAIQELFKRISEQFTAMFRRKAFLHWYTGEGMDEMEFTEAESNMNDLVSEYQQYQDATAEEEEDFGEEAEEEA

[12] = molecular target: the molecule itself; experiment: non-reducing SDS-PAGE; coiled coil wild type construct under oxidizing conditions (omission of reducing agents), compared with 1 mM mercapto-ethanol
[13] = molecular target: microtubules (native, from pig brain tubulin) (pig) (UniProt P02550); experiment: co-sedimentation; fixed katanin construct concentration (1 µM), increasing microtubule concentrations (0 to 10 µM); band density fitted to a Hill function

Molecule: wild type spastin (co-sedimentation assays) (from UniProt Q9UBP0 227-616) (domain or fragment)
- stoichiometry N (enzyme∶tubulin) [1]: 2.1
- stoichiometry N (enzyme∶tubulin) [2]: 1.4

B1: coiled-coil-Δ227 HsSpastin construct (wild type) (other)
chain: AEECKRRYEKEKEKNARLKGKVEKLEIELARWRASESGAVPKRKDPLTHTSNSLPRSKTVMKTGSAGLSGHHRAPSYSGLSMVSGVKQGSGPAPTTHKGTPKTNRTNKPSTPTTATRKKKDLKNFRNVDSNLANLIMNEIVDNGTAVKFDDIAGQDLAKQALQEIVILPSLRPELFTGLRAPARGLLLFGPPGNGKTMLAKAVAAESNATFFNISAASLTSKYVGEGEKLVRALFAVARELQPSIIFIDEVDSLLCERREGEHDASRRLKTEFLIEFDGVQSAGDDRVLVMGATNRPQELDEAVLRRFIKRVYVSLPNEETRLLLLKNLLCKQGSPLTQKELAQLARMTDGYSGSDLTALAKDAALGPIRELKPEQVKNMSASEMRNIRLSDFTESLKKIKRSVSPQTLEAYIRWNKDFGDTTV
modifications: disulphide bridge between the cysteines introduced in the coiled coil domain (oxidizing conditions)
- stoichiometry N [12]: 2

B3: Kat2 (domain or fragment)
chain: WQEINVEAKHVKDIMKTLESFKLDSTPLKAAQHDLPASEGEVWSMPVPVERRPSPGPRKRQSSQYSDPKSHGNRPSTTVRVHRSSAQNVHNDRGKAVRCREKKEQNKGREEKNKSPAAVTEPETNK
- half-maximal saturation (microtubule concentration) [13]: 0.4 µM

B4: Kat12 (domain or fragment)
chain: MSLLMISENVKLAREYALLGNYDSAMVYYQGVLDQMNKYLYSVKDTYLQQKWQQVWQEINVEAKHVKDIMKTLESFKLDSTPLKAAQHDLPASEGEVWSMPVPVERRPSPGPRKRQSSQYSDPKSHGNRPSTTVRVHRSSAQNVHNDRGKAVRCREKKEQNKGREEKNKSPAAVTEPETNK
- half-maximal saturation (microtubule concentration) [13]: 0.34 µM

Results, then the molecule that gave them:

- dwell time [3]: 5.6 s
- koff/kon [3]: 2.82 10 nM 10 µm
- landing rate [3]: 4.64
- dwell time [4]: 10.1 s
- koff/kon [4]: 0.684 10 nM 10 µm
- landing rate [4]: 8.73
- stoichiometry N (enzyme∶tubulin) [1]: 2.8
- dwell time [5]: 4.02 s
- koff/kon [5]: 1.06 10 nM 10 µm
- landing rate [5]: 14.1
- dwell time [6]: 7.3 s
- koff/kon [6]: 0.609 10 nM 10 µm
- landing rate [6]: 15.8
- dwell time [7]: > 246 s
- koff/kon [7]: 0.118 10 nM 10 µm
- landing rate [7]: 2.06
- stoichiometry N (enzyme∶tubulin) [2]: 1.1
- dwell time [8]: 2.5 s
- koff/kon [8]: 13.6 10 nM 10 µm
- landing rate [8]: 1.93
Molecule: GFP-FLAG HsKatanin (full-length katanin p60) (from UniProt O75449 1-491) (enzyme)

- stoichiometry N (enzyme∶tubulin) [1]: 2.8
- stoichiometry N (enzyme∶tubulin) [9]: 3
- half-maximal saturation (microtubule concentration) [10]: 0.4 µM
- fold reduction of affinity against native microtubules [11]: > 10 fold
- fraction bound at 4 µM microtubules [11]: < 0.33
- stoichiometry N (enzyme∶tubulin) [2]: 1.1
Molecule: katanin E309Q (Walker B mutant) (from UniProt O75449 1-491) (enzyme)

- stoichiometry N (enzyme∶tubulin) [1]: 2.2
- stoichiometry N (enzyme∶tubulin) [9]: 2.7
- stoichiometry N (enzyme∶tubulin) [2]: 1.3
Molecule: spastin E442Q mutant (from UniProt Q9UBP0 227-616) (domain or fragment)

- dwell time [3]: 6.4 s
- landing rate [3]: 4.07
- dwell time [4]: 55.7 s
- landing rate [4]: 21.2
- dwell time [5]: 10.1 s
- landing rate [5]: 22.7
- dwell time [6]: 9.6 s
- landing rate [6]: 24.2
- dwell time [7]: > 254 s
- landing rate [7]: 13.4
- dwell time [8]: 4.2 s
- landing rate [8]: 1.61
B2: GFP-Δ227 HsSpastin (domain or fragment)
chain: SESGAVPKRKDPLTHTSNSLPRSKTVMKTGSAGLSGHHRAPSYSGLSMVSGVKQGSGPAPTTHKGTPKTNRTNKPSTPTTATRKKKDLKNFRNVDSNLANLIMNEIVDNGTAVKFDDIAGQDLAKQALQEIVILPSLRPELFTGLRAPARGLLLFGPPGNGKTMLAKAVAAESNATFFNISAASLTSKYVGEGEKLVRALFAVARELQPSIIFIDEVDSLLCERREGEHDASRRLKTEFLIEFDGVQSAGDDRVLVMGATNRPQELDEAVLRRFIKRVYVSLPNEETRLLLLKNLLCKQGSPLTQKELAQLARMTDGYSGSDLTALAKDAALGPIRELKPEQVKNMSASEMRNIRLSDFTESLKKIKRSVSPQTLEAYIRWNKDFGDTTV

Reference: PMC3521757, “Spastin's Microtubule-Binding Properties and Comparison to Katanin” (PLoS ONE, 2012)
